Measured values from the supplement of paper PMC10126150.
± gives the standard deviation of the averaged measurements.

system: ATP; assay: switch fluorescence ratio, 500 uM ATP over buffer (Cy3 cluster intensity, sum of 5 cycles each) (fold (ratio)); higher = stronger signal-on switching upon ATP binding; sequences stand for … in TCGTCGGCAGCGTCAGATGTGTATAAGAGACAGTTTTTTTTTTTTTTTTTTTTTTTTT…TC; settings: aptamer strand: ATP DNA aptamer (quencher-CACCTGGGGGAGTATTGCGGAGGAAGG + anchor), 100 nM annealed; ATP concentration: 500 uM
Procedure, shortened: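 After annealing to 100 nM quencher-labelled ATP aptamer, Cy3-labelled switching-strand clusters on a modified Illumina MiSeq flow-cell were imaged in selection buffer. A second image followed after 15 min with 500 uM ATP at 22 °C, and five such buffer/ATP cycles were done, each separated by NaOH stripping and re-annealing. The fluorescence ratio, averaged per switch-domain sequence, is summed target-cycle over summed buffer-cycle Cy3 intensity per cluster, with clusters outside 100-1000 RFU excluded.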
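Note: ATP exposure 15 min at 22 °C before imaging.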

| Sequence | switch fluorescence ratio |
| --- | --- |
| CAAGTAAGTT | 0.9884 ± 0.0063 |
| CAAGTATTGT | 0.999 ± 0.025 |
| CAAGTCCATT | 1.01 ± 0.034 |
| CAAGTCCGTT | 1 ± 0.037 |
| CAAGTCTGGG | 0.9879 ± 0.0059 |
| CAAGTGAGGC | 0.987 ± 0.075 |
| CAAGTGGCAT | 1.017 ± 0.0079 |
| CAAGTTCGTG | 1.002 ± 0.0089 |
| CAAGTTTATT | 1.001 ± 0.01 |
| CAATAGAAGT | 0.979 ± 0.037 |
| CAATAGGCAG | 0.9824 ± 0.0053 |
| CAATAGTCAG | 1.04 ± 0.015 |
| CAATATATCT | 1.01 ± 0.019 |
| CAATATCCGA | 1 ± 0.026 |
| CAATATTTG | 0.994 ± 0.015 |
| CAATCATGTT | 1.02 ± 0.027 |
| CAATCGACTC | 1.047 ± 0.0037 |
| CAATCTGCGC | 1.07 ± 0.043 |
| CAATCTTGTC | 0.975 ± 0.057 |
| CAATGAACAC | 1.04 ± 0.031 |
| CAATGAGGG | 0.997 ± 0.022 |
| CAATGCGGTA | 0.976 ± 0.046 |
| CAATGGCCGA | 0.9978 ± 0.0068 |
| CAATGGGACG | 1.03 ± 0.098 |
| CAATGGGTAT | 0.978 ± 0.014 |

| Sequence | switch fluorescence ratio |
| --- | --- |
| CAATGGGTCT | 0.9523 ± 0.0028 |
| CAATGGTTTG | 1 ± 0.018 |
| CAATGTGGCG | 0.922 ± 0.038 |
| CAATGTGGGG | 0.989 ± 0.056 |
| CAATTAACGG | 1.04 ± 0.027 |
| CAATTAGGAG | 0.979 ± 0.024 |
| CAATTAGTGA | 1.01 ± 0.028 |
| CAATTCGCTA | 1.21 ± 0.089 |
| CAATTGCGCT | 1.01 ± 0.016 |
| CAATTGGAAC | 0.99578 ± 8.3e-05 |
| CAATTGGACA | 0.982 ± 0.01 |
| CAATTGGGGA | 0.995 ± 0.029 |
| CAATTGTACG | 1 ± 0.011 |
| CAATTGTTCC | 1.04 ± 0.021 |
| CAATTTAGCG | 1.02 ± 0.032 |
| CAATTTAGTG | 1 ± 0.047 |
| CAATTTGATG | 0.979 ± 0.05 |
| CACAAAAATT | 1.01 ± 0.024 |
| CACAAGCACT | 1.28 ± 0.069 |
| CACAAGGCGG | 1.03 ± 0.041 |
| CACAAGGGCC | 1.03 ± 0.018 |
| CACAATAGAT | 1.02 ± 0.022 |
| CACAATTTTT | 0.991 ± 0.025 |
| CACACGGTTC | 1.02 ± 0.028 |
| CACACTGGCA | 0.996 ± 0.05 |

| Sequence | switch fluorescence ratio |
| --- | --- |
| CACAGCGTCG | 1 ± 0.017 |
| CACAGGGCTG | 1.026 ± 0.0059 |
| CACAGGGGGG | 1.19 ± 0.34 |
| CACATAGACG | 1.03 ± 0.046 |
| CACATGACAC | 1.13 ± 0.015 |
| CACATGGTCG | 0.997 ± 0.02 |
| CACATGGTGT | 1.15 ± 0.02 |
| CACCACGGCA | 1.1 ± 0.045 |
| CACCCTTTGT | 0.9912 ± 0.0036 |
| CACCGAAATG | 1.17 ± 0.1 |
| CACCGAGATT | 1.07 ± 0.076 |
| CACCGAGTTA | 1.04 ± 0.032 |
| CACCGGGATG | 1.31 ± 0.099 |
| CACCGGGGTG | 0.995 ± 0.13 |
| CACCGTGTCT | 1.02 ± 0.016 |
| CACCTAGGCT | 1.055 ± 0.0048 |
| CACCTGTTTT | 1.02 ± 0.033 |
| CACGAAGACC | 1.197 ± 0.0068 |
| CACGAAGGAA | 1.07 ± 0.019 |
| CACGCGTGGA | 1.003 ± 0.0055 |
| CACGGATTCA | 0.988 ± 0.043 |
| CACGGCACGA | 1.36 ± 0.073 |
| CACGGCAGGG | 1.01 ± 0.012 |
| CACGGCGACA | 1.15 ± 0.027 |
| CACGGGAACA | 1.082 ± 0.0053 |

| Sequence | switch fluorescence ratio |
| --- | --- |
| CACGGGATGC | 1.58 ± 0.12 |
| CACGGGGGCG | 1 ± 0.049 |
| CACGGGGGGA | 0.99 ± 0.033 |
| CACGGGTTGC | 1.02 ± 0.031 |
| CACGGTTGGG | 0.976 ± 0.034 |
| CACGTAGTAA | 1.13 ± 0.03 |
| CACGTATGTT | 1.09 ± 0.021 |
| CACGTCTAGG | 1.05 ± 0.048 |
| CACGTGCCAG | 0.985 ± 0.043 |
| CACTCGCCCG | 1.11 ± 0.042 |
| CACTCTGCTG | 1.19 ± 0.012 |
| CACTGCGTCT | 1.07 ± 0.11 |
| CACTGGAAAA | 1.04 ± 0.036 |
| CACTGGAGGG | 0.9937 ± 0.0042 |
| CACTTAAGGC | 1.05 ± 0.072 |
| CACTTATTCT | 0.973 ± 0.017 |
| CACTTGGGTG | 1.064 ± 0.0066 |
| CACTTGGTTG | 0.997 ± 0.051 |
| CACTTGTTTT | 1.01 ± 0.011 |
| CAGAAAGGAC | 1.02 ± 0.031 |
| CAGAAGGGCC | 0.997 ± 0.089 |
| CAGAAGGTTT | 1 ± 0.022 |
| CAGACCGTTT | 1.01 ± 0.018 |
| CAGACGAGGC | 1.044 ± 0.0037 |
| CAGACGGATT | 0.996 ± 0.0085 |

| Sequence | switch fluorescence ratio |
| --- | --- |
| CAGACGGTAC | 3.08 ± 0.089 |
| CAGAGAATTT | 1.004 ± 0.0046 |
| CAGAGATCAT | 0.993 ± 0.019 |
| CAGAGGAGGG | 0.9747 ± 0.008 |
| CAGAGGATCA | 0.996 ± 0.015 |
| CAGAGGCCCG | 1.02 ± 0.032 |
| CAGAGGGGTA | 1.01 ± 0.03 |
| CAGAGGTATG | 1.01 ± 0.028 |
| CAGAGTCGGG | 0.9963 ± 0.009 |
| CAGAGTTTCT | 1.02 ± 0.021 |
| CAGAGTTTTA | 1.02 ± 0.015 |
| CAGATAAGGA | 1.01 ± 0.026 |
| CAGATGCAGA | 1.065 ± 0.0071 |
| CAGATGGGGA | 1.012 ± 0.0036 |
| CAGATGTCAA | 0.993 ± 0.013 |
| CAGATTTGGG | 1.01 ± 0.035 |
| CAGCAACGTA | 1.05 ± 0.025 |
| CAGCAATTAT | 2.95 ± 0.28 |
| CAGCAGGGGG | 1.07 ± 0.068 |
| CAGCATATAT | 2.32 ± 0.053 |
| CAGCCCGGTC | 1.06 ± 0.048 |
| CAGCGAACGG | 1.02 ± 0.026 |
| CAGCGAAGAG | 1.01 ± 0.0025 |
| CAGCGGCTTT | 0.977 ± 0.032 |
| CAGCGGGATT | 0.995 ± 0.036 |

| Sequence | switch fluorescence ratio |
| --- | --- |
| CAGCGGGGCC | 0.994 ± 0.011 |
| CAGCTAAATT | 1.02 ± 0.047 |
| CAGCTCAGCC | 1 ± 0.042 |
| CAGCTGCATT | 1.305 ± 0.013 |
| CAGCTGGATG | 0.993 ± 0.029 |
| CAGCTGGTAT | 0.9992 ± 0.0011 |
| CAGCTGGTTT | 1.004 ± 0.0077 |
| CAGCTGTGGT | 0.985 ± 0.036 |
| CAGCTTATCG | 0.995 ± 0.014 |
| CAGCTTGGGT | 0.999 ± 0.04 |
| CAGCTTTGAG | 1.01 ± 0.037 |
| CAGGAAAATG | 0.994 ± 0.041 |
| CAGGAATAGC | 1.25 ± 0.044 |
| CAGGAATAGG | 1.03 ± 0.012 |
| CAGGACAGCT | 1.02 ± 0.02 |
| CAGGACCCGA | 0.99 ± 0.025 |
| CAGGACCCGT | 0.9965 ± 0.0019 |
| CAGGACTCCG | 0.98 ± 0.046 |
| CAGGAGGCGG | 1.02 ± 0.037 |
| CAGGAGGGCT | 0.993 ± 0.031 |
| CAGGAGTCGG | 1.01 ± 0.014 |
| CAGGATCATC | 0.9884 ± 0.0035 |
| CAGGATGCAT | 1.01 ± 0.02 |
| CAGGATGCCC | 0.9871 ± 0.0066 |
| CAGGATGTAC | 1.05 ± 0.063 |

| Sequence | switch fluorescence ratio |
| --- | --- |
| CAGGATTCTG | 1.03 ± 0.059 |
| CAGGCAAGCT | 1.061 ± 0.0071 |
| CAGGCAGGAC | 2.24 ± 0.17 |
| CAGGCATGGT | 0.9891 ± 0.002 |
| CAGGCCATGG | 1.03 ± 0.094 |
| CAGGGAAGGT | 1.01 ± 0.033 |
| CAGGGAATAA | 0.997 ± 0.011 |
| CAGGGAATGT | 0.9984 ± 0.0077 |
| CAGGGAATTG | 0.989 ± 0.075 |
| CAGGGACGGT | 0.975 ± 0.058 |
| CAGGGATTTG | 0.9599 ± 0.0044 |
| CAGGGCGACA | 0.9924 ± 0.0012 |
| CAGGGCGCCT | 1.012 ± 0.002 |
| CAGGGCGTAT | 1 ± 0.026 |
| CAGGGCTTGA | 1.03 ± 0.093 |
| CAGGGGCTGT | 0.997 ± 0.038 |
| CAGGGGGAAC | 1.04 ± 0.061 |
| CAGGGGGGAT | 1.04 ± 0.067 |
| CAGGGGGGTC | 1.022 ± 0.0065 |
| CAGGGGGTAG | 1.01 ± 0.027 |
| CAGGGGGTAT | 0.997 ± 0.026 |
| CAGGGTGCCA | 1.003 ± 0.0003 |
| CAGGTAAAAG | 1.01 ± 0.035 |
| CAGGTACATT | 1.02 ± 0.049 |
| CAGGTAGATG | 0.9959 ± 0.0086 |

| Sequence | switch fluorescence ratio |
| --- | --- |
| CAGGTAGGGT | 1.01 ± 0.052 |
| CAGGTAGGTA | 0.977 ± 0.014 |
| CAGGTAGTCT | 0.997 ± 0.024 |
| CAGGTATATG | 1.01 ± 0.017 |
| CAGGTATGAA | 1 ± 0.02 |
| CAGGTCGACT | 0.972 ± 0.03 |
| CAGGTGGTTG | 1.01 ± 0.035 |
| CAGGTGTATG | 1.273 ± 0.0042 |
| CAGGTGTGGG | 1.2 ± 0.1 |
| CAGGTTCACC | 1.03 ± 0.012 |
| CAGGTTGTTC | 1.005 ± 0.0011 |
| CAGGTTTATA | 0.993 ± 0.022 |
| CAGGTTTGTT | 1.12 ± 0.17 |
| CAGTAAAGGG | 0.9703 ± 0.0059 |
| CAGTAGAGG | 0.979 ± 0.019 |
| CAGTAGATGG | 0.985 ± 0.024 |
| CAGTAGGCAA | 2 ± 0.15 |
| CAGTAGGCGC | 1.01 ± 0.011 |
| CAGTAGGGAG | 0.987 ± 0.022 |
| CAGTAGGGGG | 0.977 ± 0.068 |
| CAGTAGTAGT | 1.02 ± 0.0097 |
| CAGTAGTCGC | 1.01 ± 0.03 |
| CAGTATAAAG | 0.9738 ± 0.0068 |
| CAGTATCTGA | 1 ± 0.0047 |
| CAGTCATGCC | 0.971 ± 0.058 |
